Measurements from patent US20120269832A1.

Columns and labels:
[1] = target: human CD40L protein translated from transfected CD40L mRNA (pCR2.1 CD40L WT, >100 nucleotide poly-A tail) (human) (UniProt P29965); assay: cell-based or functional assay
[2] = target: CD40, the cognate receptor molecule for CD40L, on human monocyte-derived dendritic cells (human) (UniProt P25942); assay: cell-based or functional assay
UniProt P25942, sequence (P25942 21-277): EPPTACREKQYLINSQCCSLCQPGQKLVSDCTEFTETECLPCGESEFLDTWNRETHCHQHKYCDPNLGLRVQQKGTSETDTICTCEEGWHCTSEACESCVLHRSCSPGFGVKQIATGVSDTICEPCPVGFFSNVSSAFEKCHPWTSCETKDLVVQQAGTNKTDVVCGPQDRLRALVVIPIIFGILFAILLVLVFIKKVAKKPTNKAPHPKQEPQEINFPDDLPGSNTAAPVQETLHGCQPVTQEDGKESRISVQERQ

IL-12p70 (pg/ml), "Cocktail" matured and reactivated DCs co-cultured with HeLa/>100 polyA + IFN-γ + 24-31 [1] [pg/mL]	IL-12 p70 release from CD40L mRNA-transfected DCs cultured with IFN-γ and 10 or 50 µg/ml blocking anti-CD40L antibody [1] [%]	IL-12p70 (pg/ml), "Cocktail" matured and reactivated DCs co-cultured with HeLa/>100 polyA + IFN-γ [2] [pg/mL]	IL-12p70 (pg/ml), immature DCs co-cultured with HeLa/>100 polyA + IFN-γ [2] [pg/mL]	Substance
2.5	50			blocking CD40L monoclonal antibody 24-31 (eBioscience)
		26.3	372	human CD40L protein translated from transfected CD40L mRNA (pCR2.1 CD40L WT, >100 nucleotide poly-A tail) (from UniProt P29965 1-261) (ligand)
